The target of data set [1] is ctRetromer (Chaetomium thermophilum Retromer trimer of ctVps35, ctVps26 and ctVps29) (Chaetomium thermophilum). Put plainly: ITC; Microcal PEAQ ITC, 25 °C, 50 mM Tris-HCl pH 7.5, 200 mM NaCl, 2 mM β-ME; Vps5/Vps17/SNX1 construct or peptide (200-400 µM) titrated into 10-15 µM Retromer or Vps29; single-site model, N set to 1.0 if close to 1.
In data set [2] the target is ctVps29 (Chaetomium thermophilum). The data set is described as above.
For data set [3], the target named is ctVps5 (full length, homodimer) (Chaetomium thermophilum). As to the kind of experiment: mass photometry; Refeyn OneMP, low ionic strength: 50 mM Tris-HCl pH 7.5, 40 mM NaCl, 2 mM β-ME.
Data set [4] shares this target. Put plainly: mass photometry; Refeyn OneMP, 50-100 nM protein, 50 mM Tris-HCl pH 7.5, 200 mM NaCl, 2 mM β-ME; ctRetromer and ctVps5 combined in a 1:1 ratio.
In data set [5] the target is T1, hRetromer (Homo sapiens, UniProt Q96QK1+Q9UBQ0).
T1 construct: GST (N); made in house; host or cells: E. coli BL21(DE3) (general statement for bacterial constructs)
Put plainly: GST pull-down with hRetromer. The format is binding. The following applies: 1 nmol GST-tagged protein, 2 nmol hRetromer, overnight 4 °C, SDS-PAGE/blot. How it is done: GST pull-down assay of scVps5 and hRetromer was performed similar to the one described above with some modifications. The purified hRetromer at 2 nmol was mixed with 1 nmol GST-tagged hFam21R19–R21, scVps5_70–128 LF native, scVps5_70–128 LF mutant or GST alone separately overnight at 4 °C before added to fresh glutathione Sepharose pre-equilibrated with buffer as mentioned above. In all cases, beads were washed five times with the equilibration buffer and bounds proteins were analysed by SDS-PAGE gels.

Data set [6] addresses ctRetromer (Chaetomium thermophilum Retromer trimer of ctVps35, ctVps26 and ctVps29) (Chaetomium thermophilum). As to the kind of experiment: ITC; as a1, with 100 µM of the control cyclic peptide RT-D1 L7E in the cell: 200 µM ctVps5 titrated into 10 µM ctRetromer.
For data set [7] the target is unchanged. Put plainly: ITC; as a1, with 100 µM of the cyclic peptide RT-D3 in the cell: 200 µM ctVps5 or GST-ctVps5(51–100) titrated into 10 µM ctRetromer or ctVps29. Background: ITC needs no label: the signal is the heat of the interaction.
Data set [8] deals with scRetromer and scSNX-BAR on supported membrane tubes. As to the kind of experiment: Supported membrane tube (SMT) assay. It counts as biochemical, Saccharomyces cerevisiae.
Method: Supported membrane tubes were generated as described[46]. Briefly, glass coverslips were first washed with 3 M NaOH for 5 min and rinsed with water before a 60 min treatment with piranha solution (95% H2SO4/30% H2O2 3:2 v/v). Coverslips were rinsed with water and dried on a heat block at 90 °C. Coverslips were then silanized with 3-glycidyloxypropyltrimethoxysilane (Catalogue no. 440167, Sigma) for 5 h under vacuum, rinsed with acetone and dried. Polyethylene glycol coating was done by placing the coverslips in a beaker containing PEG400 (Sigma) at 90 °C for 60 h. Coverslips were washed with distilled water and stored for up to 2 months at room temperature in a closed container.
To generate supported membrane tubes, lipids were mixed from 10 mg/mL stocks in a glass vial and diluted to a final concentration of 1 mg/mL in chloroform. The same lipid mix was used throughout this study (5% PI(3)P, 15% DOPS, 0.1% fluorescent lipid tracer (Cy5.5 PE or Texas red DHPE), 79.5% egg-PC). Lipids were then spotted (typically 1 µL, corresponding to about 1 nmol) on the coverslips and dried for 30 min under vacuum. The coverslip was mounted on an IBIDI 6-channel µ-slide (µ-Slide VI 0.4. IBIDI, catalog no: 80606). Lipids were hydrated for 15 min with buffer (PBS) and SMTs were generated by injecting PBS into the chamber using an Aladdin Single-Syringe Pump (World Precision Instruments, model n°. AL-1000) at a flow rate of 1,5 mL/min for 5 min. SMTs were left to stabilize without flow for 5 min before the start of the experiment. Protein stocks (typically 1–2 µM) were first diluted in PBS and then injected in the chamber at a flow rate of 80 µL per minute. Cyclic peptides were added to the proteins from a 30 mM stock in DMSO to a final concentration of 300 µM. the protein/peptide mix was incubated for 1 min at room temp (23 °C) before being added to the SMTubes.
Data set [9] deals with Vps10. As to the kind of experiment: Vps10-mNeonGreen localisation/recycling in vps5Δ yeast (Pearson colocalization with vacuole). It counts as cell-based, Saccharomyces cerevisiae. The following applies: vps5Δ cells complemented with Vps5 variant on plasmid; confocal microscopy. The source says:
Fig. 7 The interaction of Retromer with the Vps5 N-terminal domain is required for Vps10 recycling. A AlphaFold2 predicted structure of the scVps35–scVps29–scVps5 complex highlighting residues targeted for mutagenesis. B Yeast cells (SEY6210) carrying a Vps5 deletion, and expressing a copy of Vam10 (the VAM10 gene is embedded in VPS5 and deleted with it) and Vps10-mNeonGreen were complemented with centromeric plasmids expressing variants of Vps5. These cells were logarithmically grown in SD-URA medium, stained with FM4−64 and analysed by confocal microscopy. Single slices of the images are shown. Scale bar: 1 μm. Arrowheads indicate regions of Vps10 vacuolar localisation, and open arrowheads indicate Vps10 localised to pre-vacuolar comparmtnets. C Graph representation showing the Pearson Colocalizastion Coefficient between the vacuolar and Vps10 signals of Vps5 deleted yeast cells shown in B quantified using JACoP (Just Another Co-localization Plugin) implemented in ImageJ. Error bars are the standard deviations calculated from ≥ 70 measurements from 2 experiments.
The Saccharomyces cerevisiae strains are derived from SEY6210 (Supplementary Table 3). Vps5 and Pep4 deletions, Vps5 N-terminal point mutations and endogenous tagging of Vps10 was conducted based on the CRISPR-Cas9 system. The vector co-expressing single guide RNA and Cas9 enzyme was co-transformed into yeast cells with double-stranded oligonucleotides as the templates for homologous recombination (Supplementary Table 4). For Vps5 deletion, the template contained 40-bp homology upstream and downstream of its coding sequence. Vps10^mNeonGreen was created by a template comprising its C-terminal region with mutated PAM sequence and fused mNeonGreen tag followed by 40-bp homology region after the stop codon. Vam10 was cloned into pRS305 vector using Not1/Sma1 restriction sites to generate an integrative plasmid that was linearized, transformed and integrated ectopically into the auxotrophic selectable marker LEU2 gene locus. […]

The subject of data set [10] is yeast vps5Δ cells (SEY6210). As to the kind of experiment: Vacuole fragmentation (FM4−64) in vps5Δ yeast. It counts as cell-based, Saccharomyces cerevisiae. The following applies: vps5Δ cells complemented with Vps5 variant on plasmid. How it is done: The Saccharomyces cerevisiae strains are derived from SEY6210 (Supplementary Table 3). Vps5 and Pep4 deletions, Vps5 N-terminal point mutations and endogenous tagging of Vps10 was conducted based on the CRISPR-Cas9 system. The vector co-expressing single guide RNA and Cas9 enzyme was co-transformed into yeast cells with double-stranded oligonucleotides as the templates for homologous recombination (Supplementary Table 4). For Vps5 deletion, the template contained 40-bp homology upstream and downstream of its coding sequence. Vps10^mNeonGreen was created by a template comprising its C-terminal region with mutated PAM sequence and fused mNeonGreen tag followed by 40-bp homology region after the stop codon. Vam10 was cloned into pRS305 vector using Not1/Sma1 restriction sites to generate an integrative plasmid that was linearized, transformed and integrated ectopically into the auxotrophic selectable marker LEU2 gene locus.
The VPS5 gene with its native promoter, C-terminally fused HA-tag and ADH1 terminator was cloned into pRS314 centromeric plasmid. A point mutation was introduced in the start codon of VAM10 (M-to-I) by site-directed mutagenesis, because VAM10 overlaps with VPS5[71]. […] For the N-terminal deletion mutant of Vps5 (Δ1-280), residues 838–2025 of VPS5 were amplified and subcloned into the pRS314-VPS5-HA plasmid described above using Nco1/Sma1 restriction sites. The plasmid bearing the PL motif mutation (L196R) was generated using site-directed mutagenesis in the pRS314-VPS5-HA plasmid. To abolish all three putative binding sites to Retromer, a synthetic gene fragment of VPS5 (ordered from GenScript) containing the following mutations—start codon of VAM10 sequence(M-to-I), L196R, L121G, F122G and F161E—was subcloned into the pRS314-VPS5-HA plasmid using Nco1/Stu1 restriction sites.
Vacuoles were stained with FM4−64. Cells were grown in SD^-URA medium to an OD600 between 0.6 and 1.0. The culture was diluted to an OD600 of 0.4, and FM4−64 was added to a final concentration of 10 µM from a 10 mM stock in DMSO. […]

Changes are numbered by the printed parent chain. Numbers in names are those of the source. Where no end group is shown, it is not given here.

With “GST-ctVps5_(51–100) (domain or fragment)”, in data set [1], the Kd (as a rule, the constant that tells how readily two partners part at equilibrium) was 660 nM and the dH is -4.1 kcal/mol. Besides, in [2], the Kd amounted to 1600 nM and the dH was -2.16 kcal/mol.
In the case of “ctRetromer (Chaetomium thermophilum Retromer trimer of ctVps35, ctVps26 and ctVps29) (complex)”, the stoichiometry N (ctRetromer per ctVps5 dimer) came to 2 in data set [3] and 1 in data set [4].
On to “GST-tagged scVps5_70–128: GST-tagged S. cerevisiae Vps5 residues 70–128 containing the LF motif (GLSVAGNPQLEEHDNSKADDLINSLAPEQDPIADLKNSTTQFIATRESGGALFTGNANS; not fully specified (N-terminus); also: GST fusion, end not given here)”, for which the “binding to hRetromer in GST pull-down” value in data set [5] is “only binds weakly to VPS35”; in data set [5] (listed as GST- scVps570-128), “binds weakly to hRetromer”.
On to “ctVps5 (full length, homodimer) (natural protein)”, for which, in [6], the Kd with 100 µM RT-D1 L7E (control peptide) present worked out at 750 nM and the dH was -7.53 kcal/mol. In [7], this molecule gave a Kd with 100 µM RT-D3 (competitor) present of 9410 nM and a dH of -10.5 kcal/mol. For the same molecule, the stoichiometry N (usually a count of units in the complex or per binding partner) in [4] was found to be 2. Moreover, in data set [1], the Kd amounted to 720 nM and the dH was -8.5 kcal/mol.

B1: quadruple mutant Vps5 (L121G/F122G/F161E/L196R): scVps5 mutant altering PL, [K/R]Φ and LFa sites (protein, UniProt Q92331 1-675, looked up, variant L121G F122G F161E L196R)
Vacuolar protein …: MDYEDNLEAPVWDELNHEGDKTQSLVSNSIESIGQISTNEERKDNELLETTASFADKIDLDSAPEWKDPGLSVAGNPQLEEHDNSKADDLINSLAPEQDPIADLKNSTTQFIATRESGGAGGTGNANSPLVFDDTIYDANTSPNTSKSISGRRSGKPRILEDSARAQRNSKRNHSLKAKRTTASDDTIKTPFTDPRKKAEKENEFVEEPLDDRNERRENNEGKFTASVEKNILEQVDRPLYNLPQTGANISSPAEVEENSEKFGKTKIGSKVPPTEKAVAFKVEVKDPVKVGELTSIHVEYTVISESSLLELKYAQVSRRYRDFRWLYRQLQNNHWGKVIPPPPEKQSVGSFKENFIENRRFQMESMLKKICQDPVLQKDKDFLLFLTSDDFSSESKKRAFLTGSGAINDSNDLSEVRISEIQLLGAEDAAEVLKNGGIDAESHKGFMSISFSSLPKYNEADEFFIEKKQKIDELEDNLKKLSKSLEMVDTSRNTLAASTEEFSSMVETLASLNVSEPNSELLNNFADVHKSIKSSLERSSLQETLTMGVMLDDYIRSLASVKAIFNQRSKLGYFLVVIENDMNKKHSQLGKLGQNIHSEKFREMRKEFQTLERRYNLTKKQWQAVGDKIKDEFQGFSTDKIREFRNGMEISLEAAIESQKECIELWETFYQTNL
In the case of B1, in data set [8] (quadruple mutant Vps5 with scVps17), the “Vps5–Vps17 heterodimer formation of mutant” value is recorded as “do not impair heterodimer formation”. Moreover, the “coat formation / recruitment on SMTs” value in data set [8] (scSNX-BAR and scRetromer on SMTs containing 5% PtdIns(3)P) is reported as “showed a defect of coat formation”. Further, the “Vps10 recycling/localisation” value in data set [9] is reported as “severe Vps10 recycling sorting defect”. In addition, in [10], the “vacuole fragmentation” value is reported as “strong vacuole fragmentation”.

B2: wildtype Vps5: S. cerevisiae wildtype Vps5 re-introduced into knockout cells (protein, UniProt Q92331 1-675, looked up)
Vacuolar protein …: B1 Vacuolar protein … with G121L, G122F, E161F, R196L
Consider B2, for which the “Vps10 recycling/localisation” value in data set [9] was “localization of Vps10-mNeonGreen on punctate structures”. In addition, the “vacuole fragmentation” value in data set [10] is “clear recovery of large vacuoles”.

B3: Vps5 (L196R): single amino acid substitution in the core PL motif of scVps5 (protein, UniProt Q92331 1-675, looked up, variant L196R)
Vacuolar protein …: B1 Vacuolar protein … with G121L, G122F, E161F
For B3, the “Vps10 recycling/localisation” value in data set [9] was “partial defect in Vps10 recycling”. Further, in data set [10], the “vacuole fragmentation” value is listed as “partial rescue of vacuole fragmentation”.

The values above are taken from PMC12000511, “Molecular basis for the assembly of the Vps5-Vps17 SNX-BAR proteins with Retromer” (Nature Communications, 2025).
